From patent publication US20230183322A1 (PEKING UNIVERSITY, published 2023)

B1: ABU-317 (antibody, V domains shown)
VH: QVQLVESGGGVVQPGWSLRLSCAASGFTFSSFAMYWVRQAPGKGLEWVAVISYDGANKYYADSVKGRFTISRDNSKNTLYLQVNSLRVEDTAVYYCARGPDYYDTGGYFDLWGRGTLVTVSS
VL: QSVLTQPPSVSAAPGQKVTISCSGSSSNIGNNYVSWYQQLPGTAPKLLIYDNNKRPSGIPDRFSGSKSGTSATLGITGLQTGDEADYYCGTWDSSLSAGVFGGGTKLTVL
B2: ABU-328 (antibody, V domains shown)
VH: EVQLVESGGGLVQPGGSLRLSCAASGFTVSSNYMSWVRQAPGKGLEWVSVIYSGGSTYYADSVKGRFTISRDNSKNTLYLQMNSLRAEDTAVYYCARLSGTGYGGDGGWFDPWGQGTLVTVSS
VL: QSALTQPASVSGSPGQSITISCTGTSSDVGSYNLVSWYQQHPGKAPKLMIYEVSKRPSGVSNRFSGSKSGNTASLTISGLQAEDEADYYCCSYAGSSLWVFGGGTKLTVL
B3: ABU-298 (antibody, V domains shown)
VH: QVQLVQSGAEVKKPGASVKVSCKASGYTFTSYGISWVRQAPGQGLEWMGWISAYNGNTNYAQKLQGRVTMTTDTSTSTAYMELRSLRSDDTAVYYCARDESGSYYGDQAFDIWGQGTMVTVSS
VL: not shown
B4: ABU-205 (antibody, V domains shown)
VH: QVQLVQSGAEVKKPGSSVKVSCKASGGTFSSYAISWVRQAPGQGLEWMGRIIPIFGTANYAQKFQGRVTITADESTSTAYMELSSLRSEDTAVYYCARAAYYYDSSGYGWFDPWGQGTLVTVSS
VL: not shown
B5: ABU-254 (antibody, V domains shown)
VH: QVQLVQSGAEVKKPGSSVKVSCKASGGTFSSYAISWVRQAPGQGLEWMGRIIPIFGTANYAQKFQGRVTITADESTSTAYMELSSLRSEDTAVYYCARAAYYYDSSGYGWFDPWGQGTLVTVSS
VL: not shown
B6: ABU-211 (antibody, V domains shown)
VH: EAQLVESGGGLVQPGRSLTVSCAVSGFTFDDYAMHWVRQAPGKGLEWVSSISWNSEKIAYADSVKGRFTVSRDNAKNSLYLQMTSLRPEDTALYYCARDKGSGSYYSGAYYYYMDVWGKGTTVTVSS
VL: SDALTQPPSVSVAPGKTAAITCGGDNIGSKNVHWYQQKPGQAPLLVVFDDGDRPSGIPERFSGSNSGNTATLTISRVEAGDEADYYCQVWDGGSDDRGYVFGTGTKVTVL
B7: ABU-323 (antibody, V domains shown)
VH: EVQLVESGGGLVQPGGSLRLSCAASGFTVSSNYMSWVRQAPGKGLEWVSVIYSGGTTYYADSVKGRFTISRHNSKNTLYLQMNSLRAEDTAVYYCARDWGEYYFDYWGQGTLVTVSS
VL: not shown
B8: ABU-394 (antibody, V domains shown)
VH: EVQLVESGGGLIQPGGSLRLSCAASGFTVSSNYMSWVRQAPGKGLEWVSVIYSGGSTYYADSVKGRFTISRDNSKNTLYLQMNSLRAEDTAVYYCARSYGDYYFDYWGQGTLVTVSS
VL: DIQLTQSPSSLSASVGDRVTITCRASQGISSYLAWYQQKPGKAPKLLIYAASTLQSGVPSRFSGSGSGTDFTLTISSLQPEDFATYYCQQLNSFGPGTKVDIK
B9: ABU-393 (antibody, V domains shown)
VH: EVQLVESGGGLIQPGGSLRLSCAASGFTVSSNYMSWVRQAPGKGLEWVSVIYSGGSTYYADSVKGRFTISRDNSKNTLYLQMNSLRAEDTAVYYCARDYGDYWFDPWGQGTLVTVSS
VL: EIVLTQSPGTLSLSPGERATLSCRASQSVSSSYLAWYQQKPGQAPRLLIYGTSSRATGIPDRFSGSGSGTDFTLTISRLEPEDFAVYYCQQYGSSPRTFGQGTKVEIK
B10: ABU-316 (antibody, V domains shown)
VH: QVQLVESGGGVVQPGRSLRLSCAASGFTFSSYGMHWVRQAPGKGLEWVAVISYDGSNKYYVDSVKGRFTISRDNSKNTLYLQMNSLRAEDTAVYYCAKDPYYYGSGSSNFFDYWGQGTLVTVSS
VL: SYVLTQPPSVSVAPGKTARITCGGNNIGSKSVHWYQQKPGQAPVLVVYDDNDRPSGIPDRFSGSNSGNTATLTISRVEAGDEADYYCQVWDSSSDHYWVFGGGTKLTVL
B11: ABU-319 (antibody, V domains shown)
VH: QVQLVESGGGVVQPGRSLRLSCAASGFTFSSYGMHWVRQAPGKGLEWVAVIWYDGSNKYYADSVKGRFTISRDNSKNTLYLQMNSLRAEDTAVYYCAKGEGVYGSGSRYFLDYWGQGTLVTVSS
VL: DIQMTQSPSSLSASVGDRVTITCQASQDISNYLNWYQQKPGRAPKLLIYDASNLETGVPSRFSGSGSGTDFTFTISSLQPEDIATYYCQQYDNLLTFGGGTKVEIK
B12: ABU-181 (antibody, V domains shown)
VH: QVQLQESGPGLVKPSQTLSLICTVSDDSISSGSYYWSWIRQPAGKGLEWIGRIYAGESTNYNPSLKSRVIISVDTSKKQFSLRLSSVTAADTAVYYCARGAVVTPFGLDSWGQGTLVTVSS
VL: SYELTQPPSVSVSPGQTARITCSGDALPKQYAYWYQQKTGQAPVLVIYKDSERPSGIPERVSGSSSGTTVTLTISGVQAEDEADYYCQSADSSGTWVFGGGTKLTVL
B13: ABU-210 (antibody, V domains shown)
VH: EVQLVESGGGLVQPGRSLRLSCAASGFTFDDYAMHWVRQAPGKGLEWVSGISWNSGTIGYEDSVKGRFIISRDNAKNSLYLQMNSLRAEDTALYYCAKEPLFGETYGMDVWGQGTTVTVSS
VL: QSALTQPASVSGSPGQSITISCTGTSSDVGGYNYVSWYQHHPGKAPKLMIYEVSNRPSGVSNRFSGSKSANTASLTISGLQTEDEADYYCSSYTSISTVLFGGGTKLTVL
B14: ABU-145 (antibody, V domains shown)
VH: QVQLQESGPGLVKPSQTLSVTCTVSGGSINRDGHYWIWIRQHPEKGLEWLGYIYSGRNTFYNPSLRSRLSISADTSKSQFSLNLHSVTAADTAVYYCAKMYSDYDDNYYGLDVWGRGTTVTVSS
VL: EIVLTQSPGTLSLSPGERATLSCRASHTISSSYLAWYQQKAGQAPRLLIYAASSRATGIPARFSGSGSGTDFTLTISRLEPEDFAVYYCQQFDNSPPWTFGRGTKVEMR
B15: ABU-305 (antibody, V domains shown)
VH: QVQLVQSGAEVKKPGASVKVSCKASGYTFTSYGISWVRQAPGQGLEWMGWISAYNGNTNYAQKLQGRVTMTTDTSTSTAYMELRSLRSDDTAVYYCARDGHSAWGAFDIWGQGTMVTVSS
VL: not shown
B16: ABU-288 (antibody, V domains shown)
VH: QVQLQESGPGLVKPSQTLSLTCTVSGGSISSGLYHWSWIRQPAGKGLEWIGRIFSSGSTAYSPSLKSRVIISADTSKNQFSLKLSSVTAADTAVYYCARDSPLKFDSFGYPLYGMDVWGQGTTVTVSS
VL: DIQMTQSPSSLSASVRDKVTITCRASQSISSCLNWYQQKPGKAPKVLIYAASSLQSGVPSRFSGSGSGTDFTLTISSVQPEDFATYYCQQSYSVPHTFGQGTKVEIK
B17: ABU-312 (antibody, V domains shown)
VH: EVQLLESGGGLVQPGGSLRLSCAASGFTFSTYAMSWVRQAPGKGLEWVSVISGSGGSTYYADSVKGRFTISRDNSKNTLYLQMNSLRAEDTAVYYCAKEYYYDSSGYYYREDAFDIWGQGTMVTVSS
VL: DIQMTQSPSAMSASVGDRVTITCRASQGISNYLAWFQQKPGKVPKRLIYAASSLQSGVPSRFSGSGSGTEFTLTISSLQPEDFATYYCLQHNSYPRTFGQGTKVEIK
B18: ABU-289 (antibody, V domains shown)
VH: QVQLVQSGAEVKKPGSSVKVSCKASGGTFSSYTISWVRQAPGQGLEWMGRIIPILGIANYAQKFQGRVTITADKSTSTAYMELSSLRSEDTAVYYCARGIVGATPGYFDYWGQGTLVTVSS
VL: EIVMTQSPATLSVSPGERATLSCRASQSVSSNLAWYQQKPGQAPRLLIYGASTRATGIPARFSGSGSGTEFTLTISSLQSEDFAVYYCQQYNNWLTFGGGTKVEIK

These binders were tested against biotin-labeled SARS-COV-2 RBD domain (SARS-CoV-2, UniProt P0DTC2 319-541) (assay: SPR, Biacore T200, biotin-RBD on SA chip, antibody as analyte).
B1 gave a Kd of less than 20 nM.
For B2, the Kd was less than 10 nM.
B3 gave a Kd of less than 20 nM.
In the case of B4, the Kd is reported as less than 10 nM.
Binder B5 has a Kd of less than 10 nM.
B6 gave a Kd of less than 20 nM.
B7 showed a Kd of less than 20 nM.
B8 gave a Kd of less than 20 nM.
B9 showed a Kd of less than 20 nM.
With B10 the Kd was less than 10 nM.
For B11, the Kd was less than 10 nM.
For B12, the Kd was less than 10 nM.
In the case of B13, the Kd is reported as less than 10 nM.
Binder B14 has a Kd of less than 10 nM.
Work on B15 yielded a Kd of less than 20 nM.
With B16 the Kd was less than 1 nM.
With B17 the Kd was less than 20 nM.
With B18 the Kd was less than 10 nM.
